In IntAct's records for PubMed 29892012:

B1: Abl interactor 2 (Homo sapiens), Q9NYB9 (parent)
chain: MAELQMLLEEEIPGGRRALFDSYTNLERVADYCENNYIQSADKQRALEETKAYTTQSLASVAYLINTLANNVLQMLDIQASQLRRMESSINHISQTVDIHKEKVARREIGILTTNKNTSRTHKIIAPANLERPVRYIRKPIDYTILDDIGHGVKWLLRFKVSTQNMKMGGLPRTTPPTQKPPSPPMSGKGTLGRHSPYRTLEPVRPPVVPNDYVPSPTRNMAPSQQSPVRTASVNQRNRTYSSSGSSGGSHPSSRSSSRENSGSGSVGVPIAVPTPSPPSVFPAPAGSAGTPPLPATSASAPAPLVPATVPSSTAPNAAAGGAPNLADGFTSPTPPVVSSTPPTGHPVQFYSMNRPASRHTPPTIGGSLPYRRPPSITSQTSLQNQMNGGPFYSQNPVSDTPPPPPPVEEPVFDESPPPPPPPEDYEEEEAAVVEYSDPYAEEDPPWAPRSYLEKVVAIYDYTKDKEDELSFQEGAIIYVIKKNDDGWYEGVMNGVTGLFPGNYVESIMHYSE
partner: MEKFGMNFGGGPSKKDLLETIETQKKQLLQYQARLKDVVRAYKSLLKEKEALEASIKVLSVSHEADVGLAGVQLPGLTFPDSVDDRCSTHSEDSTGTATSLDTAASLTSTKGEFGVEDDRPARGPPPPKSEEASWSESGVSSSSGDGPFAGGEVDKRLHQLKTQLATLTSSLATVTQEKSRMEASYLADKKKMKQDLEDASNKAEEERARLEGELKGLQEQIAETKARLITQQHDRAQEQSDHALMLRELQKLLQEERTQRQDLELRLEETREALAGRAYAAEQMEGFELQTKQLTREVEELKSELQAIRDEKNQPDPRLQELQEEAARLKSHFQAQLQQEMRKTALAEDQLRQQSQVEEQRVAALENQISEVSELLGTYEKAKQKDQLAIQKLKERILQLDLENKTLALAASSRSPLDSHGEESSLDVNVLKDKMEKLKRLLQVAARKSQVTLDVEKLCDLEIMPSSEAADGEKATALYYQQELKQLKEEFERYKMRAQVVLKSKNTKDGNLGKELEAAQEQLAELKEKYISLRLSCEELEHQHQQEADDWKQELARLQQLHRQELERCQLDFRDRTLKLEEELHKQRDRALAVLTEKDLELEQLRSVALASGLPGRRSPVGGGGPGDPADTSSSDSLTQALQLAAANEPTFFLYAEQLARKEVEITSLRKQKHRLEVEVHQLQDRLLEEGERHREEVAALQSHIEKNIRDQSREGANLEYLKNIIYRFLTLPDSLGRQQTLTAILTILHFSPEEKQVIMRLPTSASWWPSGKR
B2: Galectin-8 (Homo sapiens), O00214 (parent)
chain: MMLSLNNLQNIIYNPVIPFVGTIPDQLDPGTLIVIRGHVPSDADRFQVDLQNGSSMKPRADVAFHFNPRFKRAGCIVCNTLINEKWGREEITYDTPFKREKSFEIVIMVLKDKFQVAVNGKHTLLYGHRIGPEKIDTLGIYGKVNIHSIGFSFSSDLQSTQASSLELTEISRENVPKSGTPQLRLPFAARLNTPMGPGRTVVVKGEVNANAKSFNVDLLAGKSKDIALHLNPRLNIKAFVRNSFLQESWGEEERNITSFPFSPGMYFEMIIYCDVREFKVAVNGVHSLEYKHRFKELSSIDTLEINGDIHLLEVRSW
partner: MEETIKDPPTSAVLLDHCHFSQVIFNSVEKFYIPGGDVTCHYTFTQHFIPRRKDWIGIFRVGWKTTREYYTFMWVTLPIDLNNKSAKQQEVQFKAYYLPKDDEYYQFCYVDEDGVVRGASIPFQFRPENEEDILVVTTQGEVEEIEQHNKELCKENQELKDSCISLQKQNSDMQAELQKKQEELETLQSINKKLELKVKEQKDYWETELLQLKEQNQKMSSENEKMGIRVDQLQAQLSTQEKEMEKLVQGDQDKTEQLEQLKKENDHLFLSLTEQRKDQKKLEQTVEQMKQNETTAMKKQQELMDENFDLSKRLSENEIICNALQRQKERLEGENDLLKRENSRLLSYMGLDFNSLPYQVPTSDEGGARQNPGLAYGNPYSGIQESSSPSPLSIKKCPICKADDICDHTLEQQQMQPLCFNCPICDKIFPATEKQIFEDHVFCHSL
B3: Retinoic acid receptor alpha (Homo sapiens), P10276 (parent)
chain: MASNSSSCPTPGGGHLNGYPVPPYAFFFPPMLGGLSPPGALTTLQHQLPVSGYSTPSPATIETQSSSSEEIVPSPPSPPPLPRIYKPCFVCQDKSSGYHYGVSACEGCKGFFRRSIQKNMVYTCHRDKNCIINKVTRNRCQYCRLQKCFEVGMSKESVRNDRNKKKKEVPKPECSESYTLTPEVGELIEKVRKAHQETFPALCQLGKYTTNNSSEQRVSLDIDLWDKFSELSTKCIIKTVEFAKQLPGFTTLTIADQITLLKAACLDILILRICTRYTPEQDTMTFSDGLTLNRTQMHNAGFGPLTDLVFAFANQLLPLEMDDAETGLLSAICLICGDRQDLEQPDRVDMLQEPLLEALKVYVRKRRPSRPHMFPKMLMKITDLRSISAKGAERVITLKMEIPGSMPPLIQEMLENSEGLDTLSGQPGGGGRDGGGLAPPPGSCSPSLSPSSNRSSPATHSP
partner: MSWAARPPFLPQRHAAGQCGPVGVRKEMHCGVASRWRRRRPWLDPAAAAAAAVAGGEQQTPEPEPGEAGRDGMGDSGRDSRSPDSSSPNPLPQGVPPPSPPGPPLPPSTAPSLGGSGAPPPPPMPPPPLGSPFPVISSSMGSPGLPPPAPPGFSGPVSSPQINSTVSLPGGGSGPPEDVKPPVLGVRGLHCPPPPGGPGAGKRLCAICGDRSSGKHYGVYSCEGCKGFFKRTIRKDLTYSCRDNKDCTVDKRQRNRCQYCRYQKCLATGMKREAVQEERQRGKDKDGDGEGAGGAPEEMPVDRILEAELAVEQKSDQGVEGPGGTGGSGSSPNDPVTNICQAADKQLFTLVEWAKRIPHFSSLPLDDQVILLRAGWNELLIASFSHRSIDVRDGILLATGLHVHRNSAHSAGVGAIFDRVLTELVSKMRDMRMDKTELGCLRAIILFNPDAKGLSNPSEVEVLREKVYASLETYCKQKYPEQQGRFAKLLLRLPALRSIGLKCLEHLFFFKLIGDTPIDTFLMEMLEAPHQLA
B4: Late cornified envelope protein 1B (Homo sapiens), Q5T7P3 (parent)
chain: MSCQQNQQQCQPPPKCIPKCPPKCLTPRCPPKCPPKCPPVSSCCSVSSGGCCGSSSGGSCGSSSGGCCSSGGGGCCLSHHRRRRSHCHRPQSSGCCSQPSGGSSCCGGGSGQHSGGCC
partner: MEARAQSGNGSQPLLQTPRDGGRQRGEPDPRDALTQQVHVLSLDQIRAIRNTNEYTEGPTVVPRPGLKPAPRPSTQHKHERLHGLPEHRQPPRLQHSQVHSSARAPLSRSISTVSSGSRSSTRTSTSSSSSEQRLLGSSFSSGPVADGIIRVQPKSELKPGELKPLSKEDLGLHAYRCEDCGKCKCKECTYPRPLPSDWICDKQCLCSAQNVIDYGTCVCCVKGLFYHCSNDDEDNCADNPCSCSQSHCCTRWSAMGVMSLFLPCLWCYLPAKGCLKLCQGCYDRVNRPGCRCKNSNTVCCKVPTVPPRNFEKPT
B5: Melanoma-associated antigen 8 (Homo sapiens), P43361 (parent)
chain: MLLGQKSQRYKAEEGLQAQGEAPGLMDVQIPTAEEQKAASSSSTLIMGTLEEVTDSGSPSPPQSPEGASSSLTVTDSTLWSQSDEGSSSNEEEGPSTSPDPAHLESLFREALDEKVAELVRFLLRKYQIKEPVTKAEMLESVIKNYKNHFPDIFSKASECMQVIFGIDVKEVDPAGHSYILVTCLGLSYDGLLGDDQSTPKTGLLIIVLGMILMEGSRAPEEAIWEALSVMGLYDGREHSVYWKLRKLLTQEWVQENYLEYRQAPGSDPVRYEFLWGPRALAETSYVKVLEHVVRVNARVRISYPSLHEEALGEEKGV
partner: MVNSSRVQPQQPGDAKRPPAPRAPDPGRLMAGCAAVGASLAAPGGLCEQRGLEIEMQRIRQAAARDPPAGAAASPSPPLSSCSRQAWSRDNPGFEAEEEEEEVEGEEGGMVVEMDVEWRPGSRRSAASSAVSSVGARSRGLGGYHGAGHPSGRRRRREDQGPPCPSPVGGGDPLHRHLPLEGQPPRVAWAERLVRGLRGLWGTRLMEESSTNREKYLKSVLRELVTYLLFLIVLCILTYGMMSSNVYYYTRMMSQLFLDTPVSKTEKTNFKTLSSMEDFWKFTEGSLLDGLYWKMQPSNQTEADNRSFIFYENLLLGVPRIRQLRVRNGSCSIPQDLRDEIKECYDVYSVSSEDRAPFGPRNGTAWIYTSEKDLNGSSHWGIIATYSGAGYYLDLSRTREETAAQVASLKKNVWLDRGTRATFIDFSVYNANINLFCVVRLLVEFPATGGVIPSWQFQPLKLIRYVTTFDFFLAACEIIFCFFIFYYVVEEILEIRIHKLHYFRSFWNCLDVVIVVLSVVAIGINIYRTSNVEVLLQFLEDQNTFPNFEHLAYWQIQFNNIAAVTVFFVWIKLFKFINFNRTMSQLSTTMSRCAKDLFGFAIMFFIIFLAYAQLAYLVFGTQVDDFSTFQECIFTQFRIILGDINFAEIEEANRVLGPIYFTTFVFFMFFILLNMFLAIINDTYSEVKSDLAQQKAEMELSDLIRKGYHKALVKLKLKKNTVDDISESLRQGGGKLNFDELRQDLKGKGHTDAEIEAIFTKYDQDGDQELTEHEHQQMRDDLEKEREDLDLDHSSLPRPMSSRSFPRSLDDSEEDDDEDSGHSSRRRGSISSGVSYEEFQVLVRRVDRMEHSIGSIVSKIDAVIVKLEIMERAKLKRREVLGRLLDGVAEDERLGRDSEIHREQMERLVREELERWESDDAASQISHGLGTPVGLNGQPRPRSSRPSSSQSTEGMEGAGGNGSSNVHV

Variants of: B1
Details: with gcc1_human GCC1, Q96CN9

**Q.** E202K was tested. Which “effect of a mutation on the interaction” value did it give?
**A.** Its value is “with no effect”.

Variants of: B2
Details: with caco2_human CALCOCO2, Q13137

**Q.** For P194T, which “effect of a mutation on the interaction” value is on record?
**A.** Its value is “with no effect”.

Variants of: B3
Details: with rxrb_human RXRB

**Q.** How did the “effect of a mutation on the interaction” value turn out when P375L was run?
**A.** The value was “disrupting interaction strength”.

**Q.** Which “effect of a mutation on the interaction” value does the source give for R83H here?
**A.** Its value is “with no effect”.

Variants of: B4
Details: with spy2_human SPRY2, O43597

**Q.** C16Y was tested. Which “effect of a mutation on the interaction” value did it give?
**A.** Its value is “with no effect”.

Variants of: B5
Details: with pkd2_human PKD2, Q13563

**Q.** For R218C, which “effect of a mutation on the interaction” value is on record?
**A.** The value was “disrupting interaction strength”.
